B1: scFv; the commonest letter at each place (parent)
chain 1: EVKLDETGGGLVQPGRPMKLSCVASGFTFSDYWMNWVRQSPEKGLEWVAQIRNKPYNYETYYSDSVKGRFTISRDDSKSSVYLQMNNLRVEDMGIYYCTGSYYGMDYWGQGTSVTVS
chain 2: DVVMTQTPLSLPVSLGDQASISCRSSQSLVHSNGNTYLRWYLQKPGQSPKVLIYKVSNRFSGVPDRFSGSGSGTDFTLKISRVEAEDLGVYFCSQSTHVPWTFGGGTKLEIK

Assays:
fluorescein = variants of: B1; test: Kd (Tite-Seq); details: with fluorescein; format: scFv 4-4-20, heavy + light
[1] = variants of: B1; test: yeast surface expression (ratio to wild type); higher = more expressed; details: format: scFv 4-4-20, heavy + light

Kd (fluorescein) [µM]	Variant	yeast surface expression [1]
≥ 10	chain 1 EVKLDETGGGLVQPGRPMKLSCVASGFTFSDYWMNWVRQSPEKGLEWVAQIRNKPYNYETYYSDSVKGRFTISRDDSKSSVYLQMNNLRVEDMGIYYCTGCYYGMDYWGQGTSVTVS chain 2 DVVMTQTPLSLPVSLGDQASISCRSSQSLVHSNGNTYLRWYLQKPGQSPKVLIYKVSNRFSGVPDRFSGSGSGTDFTLKISRVEAEDLGVYFCSQSTHVPWTFGGGTKLEIK [chain 1 S101C]	0.832
≥ 10	chain 1 EVKLDETGGGLVQPGRPMKLSCVASGFTFSDYWQSWVRQSPEKGLEWVAQIRNKPYNYETYYSDSVKGRFTISRDDSKSSVYLQMNNLRVEDMGIYYCTGSYYGMDYWGQGTSVTVS chain 2 DVVMTQTPLSLPVSLGDQASISCRSSQSLVHSNGNTYLRWYLQKPGQSPKVLIYKVSNRFSGVPDRFSGSGSGTDFTLKISRVEAEDLGVYFCSQSTHVPWTFGGGTKLEIK [chain 1 M34Q N35S]	0.621
≥ 10	chain 1 EVKLDETGGGLVQPGRPMKLSCVASGFMFSDYWMNWGRQSPEKGLEWVAQIRNKPYNYETYYSDSVKGRFTISRDDSKSSVYLQMNNLRVEDMGIYYCTGSYYGMDYWGQGTSVTVS chain 2 DVVMTQTPLSLPVSLGDQASISCRSSQSLVHSNGNTYLRWYLQKPGQSPKVLIYKVSNRFSGVPDRFSGSGSGTDFTLKISRVEAEDLGVYFCSQSTHVPWTFGGGTKLEIK [chain 1 T28M V37G]	0.468
≥ 10	chain 1 EVKLDETGGGLVQPGRPMKLSCVASGFTFSDYWMDVVRQSPEKGLEWVAQIRNKPYNYETYYSDSVKGRFTISRDDSKSSVYLQMNNLRVEDMGIYYCTGSYYGMDYWGQGTSVTVS chain 2 DVVMTQTPLSLPVSLGDQASISCRSSQSLVHSNGNTYLRWYLQKPGQSPKVLIYKVSNRFSGVPDRFSGSGSGTDFTLKISRVEAEDLGVYFCSQSTHVPWTFGGGTKLEIK [chain 1 N35D W36V]	0.668
≥ 10	chain 1 EVKLDETGGGLVQPGRPMKLSCVASGFTFSDYWGNWRRQSPEKGLEWVAQIRNKPYNYETYYSDSVKGRFTISRDDSKSSVYLQMNNLRVEDMGIYYCTGSYYGMDYWGQGTSVTVS chain 2 DVVMTQTPLSLPVSLGDQASISCRSSQSLVHSNGNTYLRWYLQKPGQSPKVLIYKVSNRFSGVPDRFSGSGSGTDFTLKISRVEAEDLGVYFCSQSTHVPWTFGGGTKLEIK [chain 1 M34G V37R]	1.62
0.000804	chain 1 EVKLDETGGGLVQPGRPMKLSCVASGFPFGDYWMNWVRQSPEKGLEWVAQIRNKPYNYETYYSDSVKGRFTISRDDSKSSVYLQMNNLRVEDMGIYYCTGSYYGMDYWGQGTSVTVS chain 2 DVVMTQTPLSLPVSLGDQASISCRSSQSLVHSNGNTYLRWYLQKPGQSPKVLIYKVSNRFSGVPDRFSGSGSGTDFTLKISRVEAEDLGVYFCSQSTHVPWTFGGGTKLEIK [chain 1 T28P S30G]	1.25

From the FLAb antibody collection (doi:10.7554/elife.23156)
